The nature of this series: protease stability score; higher = more stable; yeast display proteolysis, trypsin and chymotrypsin.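 Further: log10 excess protease needed over predicted unfolded state with 0 meaning unfolded.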

With “DEEDEKHIDDVLKQGDFDEMARNADKDATVRIGEKEYRGREDVVRMLEIIHKRADEVHVDSVRVTNGRLKMDVVFDVNGVQANVILVINVHNGKIKNITLKYRNEELSRKLDKILR”, the protease stability score is 0.821.

For “DEEDEQKIAKDFVRALERGDEDRVMELADPNVRIVIGDKRYEGREELKKLVRTFKKRADHAEVHSIDIRNGTVIVDYVIHHNGRNSQQYLYVSFNNGRIKSMRVQDG”, the protease stability score was 2.07.

“DEEDEQKLAQTLAEVWKQNDEDQFVRLLDKDARVKVGDNEFRGREEAKRMMQELHRRVDHMEIKSVHAKNGSITATLRAEINGKEWRFILEAVYHNGQVKSVHIRDQ” gave a protease stability score of 1.68.

Take “DEEDEREVAKQAVDDLVKGNPDRASELADPNVHVEIGDKTYRGQTQMASALKDFRKNVDSVQIDDLKLHGNKADVDMRVDHNGQQQKYHVIVIVHNGRVSELKIKEK”: the protease stability score came to 1.48.

In turn, “DEEDERKFAEEFHKVLQTNNEEEIRKMFDPNVTAHVGDKRIHGREEVATVIARLARRADHIRLEHVEVENGRITMTLRADVDGRDVQFRVILTVRNGVVQEVQFDYTSEDQFREIQK” gave a protease stability score of 1.59.

For “DEEDERRKVQDVAKAIKKGNEKELRKLADEDAKWRVGDTDLHGMERIQKDQATRRREVDNVEIKSVDVHNGRAHVTFVVNHNGKNVEVTNTADFKNGKVKNVQVDPSKVEELKK”, the protease stability score was -0.328.

As to “DEEDERTVKERMKKNNFDELAKNADENARATYGDKTYHGREQVRKAAKDFKDAVDRVKIDSISVHNGTVRMEFTVVINGRHFEMVLYVHVHNGKVQHMEFQATDDKIRKDLKRLQE”, the protease stability score is -0.275.

Take “DEEDESRHAEIAIRALAQGDEEELRRQVDPNARVRIGEFNVHGREAAHKAVKTLQEEFDHVDLTHVTTRGEKARVDVKYKKNGKEVTFQLEAKVHDGKVKELQMEKG”: the protease stability score is -0.241.

“DEEDFNNAQSMIKDEEQGDEEQITRNLDPNVKIRVGDKRLHGRENYAREVARKARRIRVEVHIRSVSHSGNHIRIDVEVHEQQNGKPDHSRFVVLMHYNNGTVKKAQFDDTD” displayed a protease stability score of 0.103.

“DEEDHKKILQKIADVYQRGNPNQQRDLMDENARVVIGNTKFHGREQAMEAAEERRRQVDRIQLTSIDVHGNKFHIRVTLDINGKTVDIHIDVEVHNGKIKDVQVDPRAEKFFKG” gave a protease stability score of 0.202.

As to “DEEDHQKIAHSLAEVLKTGDPDRMMELADENVKFQVGDKTYHGREELKKYMEQLHRHADHIEIDHISVQGDKIRIHARMNVNGREHTFVIQVEIHNGRAKSITFQYG”, the protease stability score stood at 1.53.

The sequence “DEEDIAHQWQDKMRTAFKDNDPEQFTQLADEDAKMHVGDTEYHGRDTIMKTLVDEAKRADRITFNVQDFRVNGNNVVVRLEIRMQHNGKEDSKVVRLVFNQSGDDMRLRYAHDG” yielded a protease stability score of 0.338.

For “DEEDIARQLAEDFRKVLENGDPDEMRKNADKDARLKVGDKQVHGRDEMVKYFEKLNKEYDRVHIHIKSVSAQGDKLRVEIQVVWNSNGKNDKTTYDLVFQHDDGHVKLLEIRES”, the protease stability score amounted to 0.539.

Take “DEEDIRRIVHEFNRAVQRGNPDDVVRLLDKHAKIVVGEFDVTGREDARKFAEQLRSMADHVTIKSMSVQGDKAHVVIVFDINGKKLTLTFEVQLHNGRVQNLHVDVRDEEEFSRNVG”: the protease stability score was determined as 0.782.

As for “DEEDKADQFLRDLRQALQHNDENRMKELADKDARLNVGDKSVQGREQVVEHLVEKAKQVDDIKINIHTIKVHDGRFKFRATFVFNHNGKEESDEIVLVAHESNGKLKLLEVKEG”, the protease stability score is 1.14.

Take “DEEDKKKLNHTVANVIQHGDEKQARRLMDPNVKVVIGDKTYNGRHKATEALKTLRDRADEIRVHDFRLEGDHINIIIELHINGQQTTLEIEVQFSGDKIKSVVFKTR”: the protease stability score stood at 0.795.

Sequence “DEEDKKRLDTFDDNEDRGDRTKVRELADPNAKYEYGDNTVHGREDLEKMVHHLKNQLRIRVKSVEKRMHNGTLRASQREQQDHNGRPDDNSFDQDVHIHNGRIKQNVVEERK” gave a protease stability score of -0.15.

As for “DEEDKMTELTSRMIQAVRQNDFHKIVDQFDKNVTFEVGDHRVHGRTQAQEWARHLLRRVDHATVNLKHVEVQGDTARVKMQLILDRNGRRETRTVIIEAEIDGDKVRAKKLSIG”, the protease stability score worked out at 1.66.

In turn, “DEEDLDRVESALRTNDPDTLSEMADKDVKVEYGDKSYQGRERFQHFIKQLAHQVDHVEVRSVDKRGDRLKATRVLVINGRSITVVVTIEARNGRIKMLEMSARNESQEKKLVELFQ” gave a protease stability score of 0.941.

As to “DEEDLDTVAQTFVTALKQGDPHQVMKLADEDVKATVGDERVHGSQHVNELIKRFRRNVDHVDIEDYRIHNGKIRMRVRLTVNGRTQNLNMVLIVRNGRLKMFKIDPQDVRQFHG”, the protease stability score stood at 0.972.

The sequence “DEEDLERMQDFMRAINKGDEDRLTKLVDENVHWVVGDKRVHGREQLRKEVDRRREKMSIKFDRVDAHADNGHAVVNIEYNVKHNGQPTSNFVRVQAEATNGKIKEVVVQEDK” yielded a protease stability score of -0.279.

On to “DEEDLHHLAREMKDLMQRGDHKRFEELADENARLIIGDKTVTGRTRIKDELRKWREEADHIQIHDVRASGNRINLDIRVVVNGQEHRFIVIIELKNGKVSQMEVEDS”, for which the protease stability score is 1.91.

“DEEDLHNALNAWKAFNTGDPDRAVQLADPNVNVVIGDKHVHGREQLSHEIKRVRHESNVQVRHVNNDNQGEKAKVQAEMVDTQNGQPRTFTVDIDVRAHNGKLKEVKVQEQD” displayed a protease stability score of -0.322.

In turn, “DEEDLHRNMKQMLKDFNTGDPDKIQEQIDPNAKVQVGDTTFHGREEAHRMARDFRHQVDHIQLKEVKVRGNEFEASVVVKYDGKERRFVMQANVHNGKVKKLWFEDK” yielded a protease stability score of 0.063.

The sequence “DEEDLKEFVKILKEGDPEKLKKMVDENVTIEIGDKRVSGKEKARDLAENFRERVDSHHIHRVDIEGERMVVDVEVSVNGRRIRYTLFAEVHNGKLKQQSVQYTSEEQRKLLTEMWT” returned a protease stability score of 0.3.

“DEEDLKHMNENFESGNPDQIVEMFDKDARITVGNKKYRGREDIRKFAEMIRKQVDNRRLKSVEVEGNKFRIQWMFVVNGRRIEAVLHVHAHNGKVKEMSIEVTNPEDQTQYDRDAD” yielded a protease stability score of 1.66.

“DEEDLKKLAKELEKAIKTGDPQKIVDMADPNAKAQIGDKEVHGQENLHEAMQKLSREVDHIEIRSLSIHGEKVELVFVLQVNGRKRTYTVEMTAHNGKITHMTWRHQ”: the protease stability score stood at 0.284.

“DEEDLKKVVDQLIKAVVNGDVEKIVKYIDEDVEFKLGDTKYKGKEEAKKVVTKLVQVGAEVHVDHVRVKGDEAEVDTVWHIGNTEAHMTVKYVVRGDKVERVEVRWTEEVKKAIKAG”: the protease stability score amounted to 1.46.

As to “DEEDLKNQARDFIEALETGDEDQIARLADPDAEADVGDTKYTGREEVREYMKHISDNVDHIQLKDMKVSGNEITIVAVLNVNGHEFDMEIHIELHNGRAKTIRIDPRAINHMTK”, the protease stability score turned out to be 0.746.

Sequence “DEEDLKRLAETFADALQRNDPSQLNKMIDPNAKVQYGEKTFHGREKLHEWAHEMKKQADHFEIRSITVEGESVVIDLRMIVNGHERRLNLTMHLKNGRIQHLRADSR” came in with a protease stability score of 0.943.

Sequence “DEEDLKRLREMHKAVSRGDPRQIQENMDPNVRVQYGDKTIHGREHIASELITKMKHWRLDFKRYHATVTPNRVQVHIDYIERHNGKPHKNKNKAEAEVDNGKIKRYQQSSDG” yielded a protease stability score of -0.03.

“DEEDLKRVVDILHQNDPDQMIEMADENVKLEVGDKEFHGREEFSKFQRRIRDAVDHVEVKSLSHHNGRINMTFVLQINGRRIEFSAVVRVHNGKIKSMKVNATNEDDQSRFESQLS” returned a protease stability score of 0.192.

“DEEDLKTAHRRQRTNDFDRIRNKADKDAHVQVGDTQVHGREEVKKFMTLLKKRVDHVEIHDIEKKPGRLVVELRMNVNGQEIDLVVMFQFKNGSLKHMRFKVRDEDDKRKLEKALS” registered a protease stability score of 0.432.

The sequence “DEEDLKTMFDVMETGDPNQIADQFDKDARVVVGNRRVRGKEHIHTWAHEWRKNVDHQQVDSYEIKGDNARVDMQATINGTRFVFEIIIQVHNGKAKEMELRVRDEEEKKELDEVLE” registered a protease stability score of -0.026.

In the case of “DEEDLNKFAEHVVHALQEGNPDQLMHLADENVKMTVGDTSVEGKDQVSEYWTEMKERIDHFSYTSVDVRGNTIEIRFTADVDGRELRQVLIIEVRNGRAKSISIEDG”, the protease stability score stood at 1.88.

In turn, “DEEDLQKLARSFQENLKTGNPDELMKLFDEDANLHYGDKKVHGREDIRRWADEMRRRVDKVTVLQVDAHGDKMDAVIVQRFDGRDVMISVDAKFHNGRFKEVVYRVRDEEHEKRLHT” registered a protease stability score of 1.38.

“DEEDLQRVAEEVARALDTGNPDKFNSLLDKDAKVNYGDKEYTGREELKKLQERIKEHVDHVHVKRVKVEGEKIHLDIEFEVNGRRFRDTIEARVHNGELQKVHVDPNFVRELKQ” had a protease stability score of 0.842.

Consider “DEEDLREIVEEMRTGDEDKFNKNLDENVKVEIGDKTWQGREQAQKMHADVMRRADNVRLKEYEVHNGHVDADLTVEINGRSVEYVMKIEIDNGTMKRIEVTVRDETQEDIQRKVLE”, for which the protease stability score is 0.309.

In the case of “DEEDLRHLIELMEKGDFSRIADQADEDVRVDIGDKRIHGREQVLTYAEKLSKNIDHVKIQHYHVEGNKLVVDMVIVVNGKDVRATLTAEISNGRLKHMELHATNEEQQTRLKEIIS”, the protease stability score worked out at 0.871.

The sequence “DEEDLRKQANEVAEMFMHGDPTDAREQFDKHAEVQYGDKVVHGKEQAAQLVKEFRDNVDRVELKRVEAHGDKVTVTVVFTVNGRKVVIVFEMRIHNGKIKSVDAHVTSEELHKRMQD” showed a protease stability score of 0.155.

Turning to “DEEDLRTRASEFNKVLENNDPDRLNKLADKDATANYGDHEYHGREDIHHMAETMVRQVDRIEIKHVQARNGRVKVDLIMRVNGKEVKVDVTMEFHNGHLKLVTFDPDQVRKVEG”, the protease stability score amounted to 0.673.

Sequence “DEEDLSDVLDKMDKAIVRGDEQKLQDLADPNVRAEIGDQKYHGRDAITMFFKVLTEQVDHMRIKTVELQGNKLYIVVSAHFNGQTYDVRFVADAHNGRITRIYVDPQAQKRMEE” yielded a protease stability score of 1.29.

“DEEDLTRLHKLWRNNNWKELVNQMDPNARVTVGDEVIQGRENVTHWADRVEHQIDHYEIKDFRRQGNKILVLFRAEVNGQRFEAIVAVLMVNGDVHHLEVRFRDERDEKKFKEHVS”: the protease stability score was 1.48.

For the sequence “DEEDMDEVEKAIRKNDPEKMRDLADENAKASVGDNQFHGRDNVENFMKHLTDHADHVQVDSVEKHNGRVVVNAQLDINGEQIQIVIRIDVHNGKIKRFSIEVRDEEAHHFMREMVS”, the protease stability score came to 0.895.

“DEEDMKKVVKQLLEAAQNGNTEKIVQLVKKDVEFKLGDTEYRGQEDVRKVVKKLRDIGAEFHVKEYEATGGEAKVKTVWHIGDNEAHVEVKYTVEDDKVDRVEVRWSEKAQKQIKKG” yielded a protease stability score of 0.801.

In the case of “DEEDMKRVQDLIKAFQEGDPDKVVEQIDPNARIEVGDQHVSGRQHIRETIHNRVEEAEIHYESITLRVRGNTVEVRMVFVENKNGRPKRVHVKIEVQMHNGKVKEIREQEVS”, the protease stability score is 0.969.

“DEEDMNTLQKMNEKNDEEKLQKLADEDARFVVGDKTLTGHHEFQTFVHRFVKHVDHLQVDSVEVQGNQVDLDVRAEINGRHYRFQIVIIIQNGRLKEYRLQATDEDEEEKFKKMIE” had a protease stability score of 1.25.

Source of the values: the NTF2 design screens of Basanta et al. (2020).
